Assay results taken from patent US20150086555A1.
Where “and” joins values, the source holds several entries; their conditions need not be identical. Identical values can stand only once. Like-named read-outs stand apart in the source and are kept apart here.

What was measured:
Conditions in all cases: remark: other sources report otherwise
[1] = biological target: recombinant soluble homotrimeric HA of H1N1 A/California/04/09 (Influenza A virus A/California/04/2009(H1N1)); test: ProteOn biosensor, HA-CA captured on anti-V5 surface, Fab in solution
[2] = biological target: T1, recombinant soluble homotrimeric HA of A/Hong Kong/2108/03 (H9N2) (Influenza A virus A/HK/2108/2003(H9N2))
[3] = biological target: recombinant soluble homotrimeric HA of A/Japan/305/57 (H2N2) (Influenza A virus A/Japan/305/1957(H2N2))
[4] = biological target: recombinant soluble homotrimeric HA of A/chicken/Vietnam/NCVD-016/08 (H5N1) (Influenza A virus A/chicken/Vietnam/NCVD-016/2008(H5N1))
[5] = biological target: T2, recombinant soluble homotrimeric HA of A/South Carolina/1/18 (H1N1) (Influenza A virus A/South Carolina/1/18 (H1N1))
[6] = biological target: recombinant soluble homotrimeric HA of A/Hong Kong/156/97 (H5N1) (Influenza A virus A/Hong Kong/156/97 (H5N1))
[7] = biological target: recombinant soluble homotrimeric HA of A/swine/Ontario/01911-2/99 (H4N6) (Influenza A virus A/Swine/Ontario/01911-2/99 (H4N6))
[8] = biological target: T3, recombinant soluble homotrimeric HA of A/California/4/09 (H1N1) (Influenza A virus A/California/04/2009(H1N1))
[9] = biological target: T4, recombinant soluble homotrimeric HA of A/Indonesia/5/05 (H5N1) (Influenza A virus A/Indonesia/5/2005(H5N1))
[10] = biological target: T5, recombinant soluble homotrimeric HA of A/Anhui/1/05 (H5N1) (Influenza A virus A/Anhui/1/2005(H5N1))
[11] = biological target: T6, recombinant soluble homotrimeric HA of A/Netherlands/219/03 (H7N7) (Influenza A virus A/Netherlands/219/03(H7N7))
[12] = biological target: recombinant soluble homotrimeric HA of A/Vietnam/1203/04 (H5N1) (Influenza A virus A/VietNam/1203/2004(H5N1))
[13] = biological target: T7, recombinant soluble homotrimeric HA of A/northern shoveler/California/HKWF115/07 (H6) (Influenza A virus A/northern shoveler/California/HKWF115/2007(H6N1))
[14] = biological target: recombinant soluble homotrimeric HA of A/Hong Kong/1073/99 (H9N2) (Influenza A virus A/Hong Kong/1073/99 (H9N2))
[15] = biological target: T8, recombinant soluble homotrimeric HA of A/Egypt/3300-NAMRU3/08 (H5N1) (Influenza A virus A/Egypt/3300-NAMRU3/2008(H5N1))
[16] = biological target: recombinant soluble homotrimeric HA of A/Solomon Islands/3/06 (H1N1) (Influenza A virus A/Solomon Islands/3/2006(H1N1))
[17] = biological target: T9, recombinant soluble homotrimeric HA of A/duck/Yangzhou/02/05 (H8N4) (Influenza A virus A/duck/Yangzhou/02/2005(H8N4))
[18] = biological target: T10, recombinant soluble homotrimeric HA of A/Wisconsin/67/05 (H3N2) (Influenza A virus A/Wisconsin/67/2005(H3N2)); test: HA microarray, BCC supernatant
[19] = biological target: T5, recombinant soluble homotrimeric HA of …; test: HA microarray, BCC supernatant
[20] = biological target: T7, recombinant soluble homotrimeric HA of …; test: HA microarray, BCC supernatant
[21] = biological target: T9, recombinant soluble homotrimeric HA of …; test: HA microarray, BCC supernatant
[22] = biological target: recombinant homotrimeric HA A/duck/Yangzhou/02/05 H8N4 (Influenza A virus A/duck/Yangzhou/02/2005(H8N4)); test: protein microarray, purified IgG, trimeric HA
[23] = biological target: recombinant homotrimeric HA A/Hong Kong/156/97 H5N1 (Influenza A virus A/Hong Kong/156/97 (H5N1)); test: protein microarray, purified IgG, trimeric HA
[24] = biological target: recombinant homotrimeric HA A/Egypt/3300-NAMRU3/08 H5N1 (Influenza A virus A/Egypt/3300-NAMRU3/2008(H5N1)); test: protein microarray, purified IgG, trimeric HA
[25] = biological target: recombinant homotrimeric HA A/Netherlands/219/03 H7N7 (Influenza A virus A/Netherlands/219/03(H7N7)); test: protein microarray, purified IgG, trimeric HA
[26] = biological target: recombinant homotrimeric HA A/Wisconsin/67/05 H3N2 (Influenza A virus A/Wisconsin/67/2005(H3N2)); test: protein microarray, purified IgG, trimeric HA
[27] = biological target: recombinant homotrimeric HA A/South Carolina/1/18 H1N1 (Influenza A virus A/South Carolina/1/18 (H1N1)); test: protein microarray, purified IgG, trimeric HA
[28] = biological target: recombinant homotrimeric HA A/Japan/305/57 H2N2 (Influenza A virus A/Japan/305/1957(H2N2)); test: protein microarray, purified IgG, trimeric HA
[29] = biological target: recombinant homotrimeric HA A/northern shoveler/California/HKWF115/07 H6N4 (Influenza A virus A/northern shoveler/California/HKWF115/2007(H6N1)); test: protein microarray, purified IgG, trimeric HA
[30] = biological target: recombinant homotrimeric HA A/Vietnam/1203/04 H5N1 (Influenza A virus A/VietNam/1203/2004(H5N1)); test: protein microarray, purified IgG, trimeric HA
[31] = biological target: recombinant homotrimeric HA A/swine/Ontario/01911-2/99 H4N6 (Influenza A virus A/Swine/Ontario/01911-2/99 (H4N6)); test: protein microarray, purified IgG, trimeric HA
[32] = biological target: recombinant homotrimeric HA A/Indonesia/5/05 H5N1 (Influenza A virus A/Indonesia/5/2005(H5N1)); test: protein microarray, purified IgG, trimeric HA
[33] = biological target: recombinant homotrimeric HA A/chicken/Vietnam/NCVD-016/08 H5N1 (Influenza A virus A/chicken/Vietnam/NCVD-016/2008(H5N1)); test: protein microarray, purified IgG, trimeric HA
[34] = biological target: recombinant homotrimeric HA A/Anhui/1/05 H5N1 (Influenza A virus A/Anhui/1/2005(H5N1)); test: protein microarray, purified IgG, trimeric HA
[35] = biological target: T10, recombinant soluble homotrimeric HA of …; test: trimeric HA microarray, transfection supernatant set 3
[36] = biological target: T1, recombinant soluble homotrimeric HA of …; test: as above
[37] = biological target: T2, recombinant soluble homotrimeric HA of …; test: as above
[38] = biological target: T3, recombinant soluble homotrimeric HA of …; test: as above
[39] = biological target: T4, recombinant soluble homotrimeric HA of …; test: as above
[40] = biological target: T5, recombinant soluble homotrimeric HA of …; test: as above
[41] = biological target: T6, recombinant soluble homotrimeric HA of …; test: as above
[42] = biological target: T8, recombinant soluble homotrimeric HA of …; test: as above
[43] = biological target: T9, recombinant soluble homotrimeric HA of …; test: as above

B1: Fab fragment of TCN-522 (Fab, V domains shown)
VH: QVQLQQWGAGLLKPSETLSLTCTVSGGSLTDYSWNWIRQPPGKGLEWIGDTLHNGYTNYNPSLRGRVSISIDTSKNQVSLRLTSVTAADTALYYCARGSGGYGGFDYFGKLRTWDFWGQGTLVTVSS
VL: DIQLTQSPSSLSASVGDRVTITCRASQGIRNDLGWYQQKPGNAPKRLIFGASSLQSGVPSRFSGSGSGTEFTLTISSLQPEDFATYYCLQHNSYPYTFGQGTKLEIK
- fold slower on-rate (ka) than the other Fabs [1]: 5 fold and 8 fold

B2: TCN-564 (5256_A17b) (antibody, V domains shown)
VH: QVQLVQSGADVKKPGSSVTVSCKASGGSFSNYGINWVRQAPGQGLEWMGGIIPLINAPNYAPKFQGRVTITADMFSNIVSLQLTSLRTDDTAVYYCARRKMTTAIDYWGQGTLVTVSS
VL: QPVLSQPPSASASLGASVTLTCTLSSGFDNYQVAWYQQRPGKGPRFVMRVGNGGNVASKGDGIPDRFSVSGSGLNRYLTIKNIQEDDESDYYCGADHGSGNNFVSPYVFGGGTKLTVL
- Trimeric HA Binding: RLU [2]: 272 RLU
- Trimeric HA Binding: RLU [3]: 20200 RLU
- Trimeric HA Binding: RLU [4]: 5860 RLU
- Trimeric HA Binding: RLU [5]: 15100 RLU
- Trimeric HA Binding: RLU [6]: 18100 RLU
- Trimeric HA Binding: RLU [7]: 251 RLU
- Trimeric HA Binding: RLU [8]: 27500 RLU
- Trimeric HA Binding: RLU [9]: 26300 RLU
- Trimeric HA Binding: RLU [10]: 4260 RLU
- Trimeric HA Binding: RLU [11]: 1410 RLU
- Trimeric HA Binding: RLU [12]: 25400 RLU
- Trimeric HA Binding: RLU [13]: 16000 RLU
- Trimeric HA Binding: RLU [14]: 9470 RLU
- Trimeric HA Binding: RLU [15]: 19900 RLU
- Trimeric HA Binding: RLU [16]: 8570 RLU
- Trimeric HA Binding: RLU [17]: 369 RLU

B3: TCN-531 (5091_H13) (antibody, V domains shown)
VH: EVQLVESGGDLVQPGRSLKLSCTGSGFTFGDYGVTWVRQAPGKGLEWVGFIRTRPWGGTADTAASVKGRFTISRDDSKSLAYLQMNSLKTEDTAVYYCCRDAPPNVEVASMTNWYFDLWGRGTLVTVSS
VL: DIQLTQSPSSLSASVGDRVTITCRASQGILNCLAWYQQKPGKVPNLLMYAASTLQSGVPSRFSGSGFGTDFTLTISSLQPEDVATYYCQTYGGVSTFGGGTKVEIR
- Trimeric HA Binding: RLU [18]: 7090 RLU
- Trimeric HA Binding: RLU [19]: 3610 RLU
- Trimeric HA Binding: RLU [20]: 43900 RLU
- Trimeric HA Binding: RLU [21]: 3120 RLU
- Trimeric HA Binding: RLU [22]: 112 RLU
- Trimeric HA Binding: RLU [23]: 259 RLU
- Trimeric HA Binding: RLU [24]: 2810 RLU
- Trimeric HA Binding: RLU [25]: 170 RLU
- Trimeric HA Binding: RLU [26]: 20600 RLU
- Trimeric HA Binding: RLU [27]: 56 RLU
- Trimeric HA Binding: RLU [28]: 441 RLU
- Trimeric HA Binding: RLU [29]: 45 RLU
- Trimeric HA Binding: RLU [30]: 488 RLU
- Trimeric HA Binding: RLU [31]: 84 RLU
- Trimeric HA Binding: RLU [32]: 84 RLU
- Trimeric HA Binding: RLU [33]: 124 RLU
- Trimeric HA Binding: RLU [34]: 4960 RLU
- Trimeric HA Binding: RLU [35]: 4160 RLU
- Trimeric HA Binding: RLU [36]: 158 RLU
- Trimeric HA Binding: RLU [37]: 1560 RLU
- Trimeric HA Binding: RLU [38]: 2830 RLU
- Trimeric HA Binding: RLU [39]: 54 RLU
- Trimeric HA Binding: RLU [40]: 76 RLU
- Trimeric HA Binding: RLU [41]: 384 RLU
- Trimeric HA Binding: RLU [42]: 363 RLU
- Trimeric HA Binding: RLU [43]: 3220 RLU
